This test deals with CXCL4 (platelet factor 4, PF4) (human). Description: AUC.

In the case of “CXCL4 (platelet factor 4, PF4) (natural protein)”, the stoichiometry N is 4.

What is called stoichiometry N is the number of molecules, sites or subunits per partner or assembly.

The values are drawn from article doi:10.1101/2022.07.10.499282.
